Among the data in patent publication US20190055314A1 (ADAGENE, published 2019) are Kd, koff and kon values, retold here.

One may read the Kd as a measure of binding affinity in units of concentration. The low end stands for higher affinity, the high end for lower affinity. For orientation: koff means the first-order rate constant of dissociation. High values mean fast dissociation, low ones slow dissociation. The kon is the second-order rate constant of association. Higher therefore signals fast association.

The labels stand for the following.
B1: Fab 5349 (Fab, V domains shown)
VH: EVQLVESGGGLVQPGGSLRLSCAASGYSITSGHYWAWIRQAPGKGLEWVSAISGSGSSTYYADSVKGRFTISRDNSKNTLYLQLNSLRAEDTAVYYCARGGSDTVLGDWFAYWGQGTLVTVSS
VL: DIQLTQSPSSLSASVGDRVTITCRASQGISSSLAWYQQKPGKAPKLLIYDASNLETGVPSRFSGSGSGTDFTLTISSLQPEDFATYYCQQGYSTWTFGQGTKVEIKR
notes: Fab from E. coli; also called VH24/VL24
B2: Fab 4076 (Fab, V domains shown)
VH: EVQLVESGGGLVQPGGSLRLSCAASGYSITSGYHWGWIRQAPGKGLEWVSAISGAGGSTYYADSVKGRFTISRDNSKNTLYLQLNSLRAEDTAVYYCARDGYGGSYFDYWGQGTLVTVSS
VL: DIQLTQSPSSLSASVGDRVTITCQASQDISTFLAWYQQKPGKAPKLLIYDASSLESGVPSRFSGSGSGTDFTLTISSLQPEDFATYYCQQAYSIWTFGQGTKVEIKR
notes: Fab from E. coli; also called VH4/VL4
B3: Fab 5346 (Fab, V domains shown)
VH: EVQLVESGGGLVQPGGSLRLSCAASGFSLSTGGVGVGWIRQAPGKGLEWVSGISGYGSTTYYADSVKGRFTISRDNSKNTLYLQLNSLRAEDTAVYYCAREGSDAVAGDWFDYWGQGTLVTVSS
VL: DIQLTQSPSSLSASVGDRVTITCRASQDIRSYLAWYQQKPGKAPKLLIYDASNRATGIPSRFSGSGSGTDFTLTISSLQPEDFATYYCQQGYSIWTFGQGTKVEIKR
notes: Fab from E. coli; also called VH22/VL22
B4: Fab 5407 (Fab, V domains shown)
VH: EVQLVESGGGLVQPGASLRLSCAASGFSLSTGGVGVAWIRQAPGKGLEWVSSISGYGSTTYYADSVKGRFTISRDNSKNTLYLQLNSLRAEDTAVYYCAREGSDAVLGDWFGYWGQGTLVTVSS
VL: DIQLTQSPSSLSASVGDRVTITCQASQDITTYLAWYQQKPGKAPKLLIYDASNRATGIPSRFSGSGSGTDFTLTISSLQPEDFATYYCQQGYYLWTFGQGTKVEIKR
notes: Fab from E. coli; also called VH35/VL35
B5: Fab 5417 (Fab, V domains shown)
VH: EVQLVESGGGLVQPGGSLRLSCAASGFSLSTSGVGVAWIRQAPGKGLEWVSSISGAGGTTYYADSVKGRFTISRDNSKNTLYLQLNSLRAEDTAVYYCARGGSTAVTGDWFDYWGQGTLVTVSS
VL: DIQLTQSPSSLSASVGDRVTITCRASQGISPYLAWYQQKPGKAPKLLIYDASNRATGIPSRFSGSGSGTDFTLTISSLQPEDFATYYCQQGYSLWTFGQGTKVEIKR
notes: Fab from E. coli; also called VH39/VL39
B6: Fab 5363 (Fab, V domains shown)
VH: EVQLVESGGGLVQPGGSLRLSCAASGYSISSGHYWTWIRQAPGKGLEWVSAISGSGSSTYYADSVKGRFTISRDNSKNTLYLQLNSLRAEDTAVYYCARGGSDAVLGDWFAYWGQGTLVTVSS
VL: DIQLTQSPSSLSASVGDRVTITCRASQGVGSYLAWYQQKPGKAPKLLIYDASNLETGVPSRFSGSGSGTDFTLTISSLQPEDFATYYCQQGYQLWTFGQGTKVEIKR
notes: Fab from E. coli; also called VH29/VL29
B7: Fab 3760 (Fab, V domains shown)
VH: EVQLVESGGGLVQPGGSLRLSCAASGFTFTSYGIHWVRQAPGKGLEWVSGISGAGDTTYYADSVKGRFTISRDNSKNTLYLQLNSLRAEDTAVYYCARERDYDFDYWGQGTLVTVSS
VL: DIQLTQSPSSLSASVGDRVTITCRASQSVSSYLAWYQQKPGKAPKLLIYDASNLETGVPSRFSGSGSGTDFTLTISSLQPEDFATYYCQQSYSTSHTFGQGTKVEIKR
notes: Fab from E. coli; also called VH1/VL1
B8: Fab 7080 (Fab, V domains shown)
VH: EVQLVESGGGLVQPGGSLRLSCAASGFSLSTGGVGVGWIRQAPGKGLEWVSYISGAGGTTYYADSVKGRFTISRDNSKNTLYLQLNSLRAEDTAVYYCAREGSDTVLGDWFAYWGQGTLVTVSS
VL: DIQLTQSPSSLSASVGDRVTITCRASQGISSYLAWYQQKPGKAPKLLIYDASNLETGVPSRFSGSGSGTDFTLTISSLQPEDFATYYCQQYYTTPLTFGQGTKVEIKR
notes: Fab from E. coli; also called VH43/VL43
B9: Fab 7092 (Fab, V domains shown)
VH: EVQLVESGGGLVQPGGSLRLSCAASGFSLSTSGMGVGWIRQAPGKGLEWVSYISGYGGTTYYADSVKGRFTISRDNSKNTLYLQLNSLRAEDTAVYYCAREGSDVVAGDWFAYWGQGTLVTVSS
VL: DIQLTQSPSSLSASVGDRVTITCRASQGISSYLAWYQQKPGKAPKLLIYDASNLETGVPSRFSGSGSGTDFTLTISSLQPEDFATYYCQQYYSTPLTFGQGTKVEIKR
notes: Fab from E. coli; also called VH48/VL48
B10: Fab 7088 (Fab, V domains shown)
VH: EVQLVESGGGLVQPGGSLRLSCAASGFSLSTSGVGVGWIRQAPGKGLEWVSYISGDGGSTYYADSVKGRFTISRDNSKNTLYLQLNSLRAEDTAVYYCAREGSTAVVGDWFAYWGQGTLVTVSS
VL: DIQLTQSPSSLSASVGDRVTITCRASQGISSYLAWYQQKPGKAPKLLIYDASNLETGVPSRFSGSGSGTDFTLTISSLQPEDFATYYCQQYYTTPLTFGQGTKVEIKR
notes: Fab from E. coli; also called VH46/VL46
B11: Fab 7078 (Fab, V domains shown)
VH: EVQLVESGGGLVQPGGSLRLSCAASGFSLSTGGVGVGWIRQAPGKGLEWVSYISGDGDTTYYADSVKGRFTISRDNSKNTLYLQLNSLRAEDTAVYYCAREGSDTVAGDWFAYWGQGTLVTVSS
VL: DIQLTQSPSSLSASVGDRVTITCRASQGISSYLAWYQQKPGKAPKLLIYDASNLETGVPSRFSGSGSGTDFTLTISSLQPEDFATYYCQQYYTTPLTFGQGTKVEIKR
notes: Fab from E. coli; also called VH41/VL41
B12: Fab 7090 (Fab, V domains shown)
VH: EVQLVESGGGLVQPGGSLRLSCAASGFSLSTGGVGVAWIRQAPGKGLEWVSYISGYGGTTYYADSVKGRFTISRDNSKNTLYLQLNSLRAEDTAVYYCAREGSTAVLGDWFAYWGQGTLVTVSS
VL: DIQLTQSPSSLSASVGDRVTITCRASQGISSYLAWYQQKPGKAPKLLIYDASNLETGVPSRFSGSGSGTDFTLTISSLQPEDFATYYCQQYYSTPLTFGQGTKVEIKR
notes: Fab from E. coli; also called VH47/VL47
B13: Fab 7087 (Fab, V domains shown)
VH: EVQLVESGGGLVQPGGSLRLSCAASGFSLSTGGVGVGWIRQAPGKGLEWVSYISGDGDTTYYADSVKGRFTISRDNSKNTLYLQLNSLRAEDTAVYYCAREGSTAVLGDWFAYWGQGTLVTVSS
VL: DIQLTQSPSSLSASVGDRVTITCRASQGISSYLAWYQQKPGKAPKLLIYDASNLETGVPSRFSGSGSGTDFTLTISSLQPEDFATYYCQQYYTTPLTFGQGTKVEIKR
notes: Fab from E. coli; also called VH45/VL45
B14: Fab 7105 (Fab, V domains shown)
VH: EVQLVESGGGLVQPGGSLRLSCAASGFSLSTGGVGVGWIRQAPGKGLEWVSYISGAGSTTYYADSVKGRFTISRDNSKNTLYLQLNSLRAEDTAVYYCAREGSDTVLGDWFAYWGQGTLVTVSS
VL: DIQLTQSPSSLSASVGDRVTITCRASQGISSYLAWYQQKPGKAPKLLIYDASNLETGVPSRFSGSGSGTDFTLTISSLQPEDFATYYCQQYYSTPLTFGQGTKVEIKR
notes: Fab from E. coli; also called VH51/VL51
B15: Fab 7100 (Fab, V domains shown)
VH: EVQLVESGGGLVQPGGSLRLSCAASGFSLSTSGVGVGWIRQAPGKGLEWVSYISGDGGSTYYADSVKGRFTISRDNSKNTLYLQLNSLRAEDTAVYYCAREGSDTVLGDWFAYWGQGTLVTVSS
VL: DIQLTQSPSSLSASVGDRVTITCRASQGISSYLAWYQQKPGKAPKLLIYDASNLETGVPSRFSGSGSGTDFTLTISSLQPEDFATYYCQQYYSTPLTFGQGTKVEIKR
notes: Fab from E. coli; also called VH50/VL50
B16: Fab 7081 (Fab, V domains shown)
VH: EVQLVESGGGLVQPGGSLRLSCAASGFSLSTGGVGVGWIRQAPGKGLEWVSYISGAGGTTYYADSVKGRFTISRDNSKNTLYLQLNSLRAEDTAVYYCAREGSDAVLGDWFAYWGQGTLVTVSS
VL: DIQLTQSPSSLSASVGDRVTITCRASQGISSYLAWYQQKPGKAPKLLIYDASNLETGVPSRFSGSGSGTDFTLTISSLQPEDFATYYCQQYYTTPLTFGQGTKVEIKR
notes: Fab from E. coli; also called VH44/VL44
B17: Fab 7079 (Fab, V domains shown)
VH: EVQLVESGGGLVQPGGSLRLSCAASGFSLSTSGVGVAWIRQAPGKGLEWVSSISGYGGTTYYADSVKGRFTISRDNSKNTLYLQLNSLRAEDTAVYYCAREGSDTVLGDWFAYWGQGTLVTVSS
VL: DIQLTQSPSSLSASVGDRVTITCRASQGISSYLAWYQQKPGKAPKLLIYDASNLETGVPSRFSGSGSGTDFTLTISSLQPEDFATYYCQQYYTTPLTFGQGTKVEIKR
notes: Fab from E. coli; also called VH42/VL42
B18: Fab 7077 (Fab, V domains shown)
VH: EVQLVESGGGLVQPGGSLRLSCAASGFSLSTGGVGVAWIRQAPGKGLEWVSYISGSGDTTYYADSVKGRFTISRDNSKNTLYLQLNSLRAEDTAVYYCAREGSDTVVGDWFAYWGQGTLVTVSS
VL: DIQLTQSPSSLSASVGDRVTITCRASQGISSYLAWYQQKPGKAPKLLIYDASNLETGVPSRFSGSGSGTDFTLTISSLQPEDFATYYCQQYYTTPLTFGQGTKVEIKR
notes: Fab from E. coli; also called VH40/VL40

The assay has as its target T1, CD137-hisFc fusion protein (Sino Biological Cat 10041-H03H) (human, UniProt Q07011 24-186).
T1 construct: Bought; also called recombinant human CD137 (fused with human Fc and His tag); not shown: His tag and human Fc
As to the kind of experiment: BLI Octet, Fab. Background: BLI is a label-free optical method that tracks binding on a fibre tip over time.
In turn, B1 registered a dissociation constant Kd of 6.2 nM, an off-rate constant (koff) of 0.00101 s⁻¹ and an association rate constant (kon) of 162000 M⁻¹ s⁻¹.
The like results for B2 were, in that order, 7.44 nM, 0.000475 s⁻¹ and 63800 M⁻¹ s⁻¹.
On to B3, for which the affinity, expressed as Kd, was 16.1 nM; the dissociation rate constant (koff) came out at 0.00977 s⁻¹; the on-rate (kon) is 605000 M⁻¹ s⁻¹.
The matching figures for B4: 1.76 nM, 0.000437 s⁻¹ and 248000 M⁻¹ s⁻¹.
The like results for B5 were, in that order, 40.4 nM, 0.00231 s⁻¹ and 57200 M⁻¹ s⁻¹.
The molecule B6 displayed a Kd of 9.87 nM, a koff of 0.000826 s⁻¹ and a kon of 83700 M⁻¹ s⁻¹.
The like results for B7 were, in that order, 12.6 nM, 0.00444 s⁻¹ and 352000 M⁻¹ s⁻¹.
The matching figures for B8: 24.4 nM, 0.00746 s⁻¹ and 306000 M⁻¹ s⁻¹.
The matching figures for B9: 45.7 nM, 0.0197 s⁻¹ and 431000 M⁻¹ s⁻¹.
Take B10: the affinity, expressed as Kd, was 43.6 nM; the dissociation rate constant (koff) was 0.0111 s⁻¹; the on-rate (kon) stood at 255000 M⁻¹ s⁻¹.
In the case of B11, the equilibrium dissociation constant (Kd) is 25.2 nM, the koff was 0.0087 s⁻¹ and the kon was 345000 M⁻¹ s⁻¹.
The like results for B12 were, in that order, 55.5 nM, 0.0173 s⁻¹ and 312000 M⁻¹ s⁻¹.
The matching figures for B13: 69.6 nM, 0.00855 s⁻¹ and 123000 M⁻¹ s⁻¹.
The molecule B14 returned a dissociation constant Kd of 33.3 nM, an off-rate (koff) of 0.011 s⁻¹ and an on-rate (kon) of 330000 M⁻¹ s⁻¹.
The matching figures for B15: 35 nM, 0.0162 s⁻¹ and 462000 M⁻¹ s⁻¹.
Molecule B16 showed a Kd of 43.1 nM, a koff of 0.0123 s⁻¹ and a kon of 287000 M⁻¹ s⁻¹.
The matching figures for B17: 29.9 nM, 0.003 s⁻¹ and 100000 M⁻¹ s⁻¹.
B18 had a Kd of 18.8 nM, an off-rate constant (koff) of 0.00934 s⁻¹ and a kon of 498000 M⁻¹ s⁻¹.
